Measurements as given in US20210221873A1 (Dana-Farber, published 2021).

Tests used:
Test in all cases: FACS on transfected 293T cells
[1] = target: full-length H13 HA of H13-MD77 (A/Gull/MD/704/77 (H13N6)) (influenza A virus A/Gull/MD/704/77 …, UniProt P13103 19-566)
[2] = target: full-length H7 HA of H7-FP34 (A/FPV/Rostock/34 (H7N1)) (influenza A virus A/FPV/Rostock/34 …, UniProt P03459 19-563)
[3] = target: full-length H2 HA of H2-JP57 (A/Japan/305/57 (H2N2)) (influenza A virus A/Japan/305/57 (H2N2), UniProt P03451 16-562)
[4] = target: full-length H14 HA of H14-CU82 (A/mallard/Gurjev/263/82 (H14N5)) (influenza A virus …, UniProt P26136 18-568)
Sequence of full-length H14 HA of H14-CU82 (A/mallard/Gurjev/263/82 (H14N5)) (P26136 18-568 limits assumed): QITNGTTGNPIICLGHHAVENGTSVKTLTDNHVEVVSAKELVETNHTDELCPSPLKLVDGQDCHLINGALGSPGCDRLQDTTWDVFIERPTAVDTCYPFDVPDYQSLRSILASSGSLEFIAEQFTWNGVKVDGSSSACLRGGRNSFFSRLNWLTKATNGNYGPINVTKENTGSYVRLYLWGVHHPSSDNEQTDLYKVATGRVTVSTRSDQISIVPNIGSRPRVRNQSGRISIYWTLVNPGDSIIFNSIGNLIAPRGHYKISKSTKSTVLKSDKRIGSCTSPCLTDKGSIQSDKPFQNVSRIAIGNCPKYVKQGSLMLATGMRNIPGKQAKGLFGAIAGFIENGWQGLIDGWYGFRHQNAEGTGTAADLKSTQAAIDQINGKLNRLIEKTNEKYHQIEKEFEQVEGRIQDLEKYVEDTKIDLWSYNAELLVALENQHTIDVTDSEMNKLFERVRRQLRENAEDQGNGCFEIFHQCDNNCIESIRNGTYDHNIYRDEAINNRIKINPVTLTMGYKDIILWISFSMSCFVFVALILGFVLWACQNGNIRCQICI

[5] = target: full-length H8 HA of H8-ON68 (A/turkey/Ontario/6118/68) (influenza A virus …, UniProt P03456 16-565)
Sequence of full-length H8 HA of H8-ON68 (A/turkey/Ontario/6118/68) (P03456 16-565 limits assumed): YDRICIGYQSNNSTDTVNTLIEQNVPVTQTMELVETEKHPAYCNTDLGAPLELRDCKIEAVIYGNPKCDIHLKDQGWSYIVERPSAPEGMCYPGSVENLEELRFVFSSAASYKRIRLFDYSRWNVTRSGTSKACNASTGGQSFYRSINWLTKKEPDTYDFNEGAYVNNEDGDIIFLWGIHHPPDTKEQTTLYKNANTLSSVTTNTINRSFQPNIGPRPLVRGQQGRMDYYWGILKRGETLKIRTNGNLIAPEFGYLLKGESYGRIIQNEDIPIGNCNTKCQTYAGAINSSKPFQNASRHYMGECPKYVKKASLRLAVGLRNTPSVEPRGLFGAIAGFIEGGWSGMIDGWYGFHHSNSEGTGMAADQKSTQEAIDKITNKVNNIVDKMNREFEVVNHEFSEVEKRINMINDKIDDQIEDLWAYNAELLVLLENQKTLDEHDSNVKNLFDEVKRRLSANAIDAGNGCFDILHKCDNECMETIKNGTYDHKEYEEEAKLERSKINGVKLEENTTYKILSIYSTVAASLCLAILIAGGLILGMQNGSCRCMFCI

[6] = target: full-length H1 HA of H1-SC1918 (A/South Carolina/1/1918 (H1N1)) (influenza A virus A/South …, UniProt Q9WFX3 18-566)
Sequence of full-length H1 HA of H1-SC1918 (A/South Carolina/1/1918 (H1N1)) (Q9WFX3 18-566): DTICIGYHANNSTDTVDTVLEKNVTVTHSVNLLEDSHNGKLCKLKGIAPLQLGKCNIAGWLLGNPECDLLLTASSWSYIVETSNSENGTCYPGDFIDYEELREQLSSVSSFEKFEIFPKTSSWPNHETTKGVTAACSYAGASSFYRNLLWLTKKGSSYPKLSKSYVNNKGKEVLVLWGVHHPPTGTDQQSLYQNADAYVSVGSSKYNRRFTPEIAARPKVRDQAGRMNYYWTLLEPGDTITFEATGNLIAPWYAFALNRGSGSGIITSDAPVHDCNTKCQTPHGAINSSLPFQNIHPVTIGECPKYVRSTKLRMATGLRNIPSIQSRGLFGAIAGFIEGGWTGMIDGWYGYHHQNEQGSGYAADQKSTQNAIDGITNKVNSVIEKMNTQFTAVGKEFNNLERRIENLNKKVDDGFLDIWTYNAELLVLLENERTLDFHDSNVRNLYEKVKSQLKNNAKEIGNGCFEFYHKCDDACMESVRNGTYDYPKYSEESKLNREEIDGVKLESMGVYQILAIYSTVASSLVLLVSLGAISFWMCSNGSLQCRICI

[7] = target: full-length H1 HA of H1-PR34 (A/Puerto Rico/8/34 (H1N1)) (influenza A virus A/Puerto Rico/8/34 …, UniProt P03452 18-565)
Sequence of full-length H1 HA of H1-PR34 (A/Puerto Rico/8/34 (H1N1)) (P03452 18-565): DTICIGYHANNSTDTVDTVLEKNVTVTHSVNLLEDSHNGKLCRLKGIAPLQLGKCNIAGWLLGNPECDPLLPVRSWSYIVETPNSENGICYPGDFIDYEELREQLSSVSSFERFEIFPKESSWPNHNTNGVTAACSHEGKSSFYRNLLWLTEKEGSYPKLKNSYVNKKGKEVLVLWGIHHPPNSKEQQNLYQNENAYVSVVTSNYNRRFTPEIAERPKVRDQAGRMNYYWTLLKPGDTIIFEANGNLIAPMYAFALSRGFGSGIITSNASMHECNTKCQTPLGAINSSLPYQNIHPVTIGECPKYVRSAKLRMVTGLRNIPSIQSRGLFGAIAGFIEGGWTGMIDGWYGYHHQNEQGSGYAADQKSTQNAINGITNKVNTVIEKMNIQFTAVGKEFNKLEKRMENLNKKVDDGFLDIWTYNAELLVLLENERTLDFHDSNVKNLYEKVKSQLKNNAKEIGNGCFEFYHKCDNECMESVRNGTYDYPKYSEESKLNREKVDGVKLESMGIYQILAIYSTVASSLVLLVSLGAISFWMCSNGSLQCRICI

Sequence of full-length H7 HA of H7-FP34 (A/FPV/Rostock/34 (H7N1)) (P03459 19-563): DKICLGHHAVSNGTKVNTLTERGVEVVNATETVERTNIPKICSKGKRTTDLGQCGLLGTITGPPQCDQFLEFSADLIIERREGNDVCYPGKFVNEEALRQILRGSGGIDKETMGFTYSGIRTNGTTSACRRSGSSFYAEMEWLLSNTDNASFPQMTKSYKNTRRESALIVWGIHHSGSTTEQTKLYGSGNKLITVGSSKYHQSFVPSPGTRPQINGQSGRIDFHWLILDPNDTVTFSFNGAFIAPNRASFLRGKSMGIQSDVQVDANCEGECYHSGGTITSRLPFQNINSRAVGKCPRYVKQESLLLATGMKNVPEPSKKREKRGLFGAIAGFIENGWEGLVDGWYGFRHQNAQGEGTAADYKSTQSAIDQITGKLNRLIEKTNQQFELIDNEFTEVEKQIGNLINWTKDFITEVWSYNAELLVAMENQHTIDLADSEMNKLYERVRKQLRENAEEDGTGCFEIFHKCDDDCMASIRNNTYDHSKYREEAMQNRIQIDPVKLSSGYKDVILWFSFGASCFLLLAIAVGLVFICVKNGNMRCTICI
Sequence of full-length H13 HA of H13-MD77 (A/Gull/MD/704/77 (H13N6)) (P13103 19-566): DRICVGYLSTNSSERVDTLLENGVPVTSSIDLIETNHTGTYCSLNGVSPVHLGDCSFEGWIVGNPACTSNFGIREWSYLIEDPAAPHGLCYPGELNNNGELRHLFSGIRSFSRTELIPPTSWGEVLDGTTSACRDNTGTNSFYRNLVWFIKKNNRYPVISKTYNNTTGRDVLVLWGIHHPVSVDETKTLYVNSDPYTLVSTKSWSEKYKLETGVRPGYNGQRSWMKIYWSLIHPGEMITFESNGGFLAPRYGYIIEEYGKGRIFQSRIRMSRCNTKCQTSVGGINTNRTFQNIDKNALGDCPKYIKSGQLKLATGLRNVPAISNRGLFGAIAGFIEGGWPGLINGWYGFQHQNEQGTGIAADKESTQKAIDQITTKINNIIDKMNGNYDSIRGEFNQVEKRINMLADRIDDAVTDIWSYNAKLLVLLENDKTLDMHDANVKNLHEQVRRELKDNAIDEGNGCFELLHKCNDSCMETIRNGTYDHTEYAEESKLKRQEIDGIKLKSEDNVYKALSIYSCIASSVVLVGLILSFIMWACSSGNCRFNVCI

| Binder | binding result [1] | binding result [2] | binding result [3] | binding result [4] | binding result [5] | binding result [6] | binding result [7] |
| --- | --- | --- | --- | --- | --- | --- | --- |
| D8-IgG1 (antibody, V domains shown) VH: QVQLVQSGAEVKKPGSSVKVSCKASGGTFSAYAFTWVRQAPGQGLEWMGGITGMFGTANYAQKFQGRVTITADELTSTAYMELSSLTSEDTALYYCARGLYYYESSLDYWGQGTLVTVSS VL: QSVLTQPPSASGSPGQSVTISCTGTSSDVGGYNSVSWYQQHPGKAPKLMIYEVTKRPSGVPDRFSASKSGNTASLTVSGLQAEDEADYFCCSYAGHSAYVFGTGTKVTVL | binds | no binding (tested: 10 µg/mL) | binds | no binding | binds | binds | binds |
| A66-IgG1 (antibody, V domains shown) VH: QVQLVQSGAEVKKPGSSVKVSCKASGGPFSMTAFTWLRQAPGQGLEWMGGISPIFRTPKYAQKFQGRVTITADESTNTANMELTSLKSEDTAVYYCARTLSSYQPNNDAFAIWGQGTMVTVSS VL: EIVLTQSPATLSLSPGERATLSCRASQSVSSYLAWYQQKPGQAPRLLIYDASNRATGIPARFSGSGSGTDFTLTISRLEPEDFAVYFCQQYGSSPQFGQGTRLEIK | binds | no binding (tested: 10 µg/mL) | binds | no binding | binds | binds | binds |
| F10-IgG1 (antibody, V domains shown) VH: QVQLVQSGAEVKKPGSSVKVSCTSSEVTFSSFAISWVRQAPGQGLEWLGGISPMFGTPNYAQKFQGRVTITADQSTRTAYMDLRSLRSEDTAVYYCARSPSYICSGGTCVFDHWGQGTLVTVSS VL: QPGLTQPPSVSKGLRQTATLTCTGNSNNVGNQGAAWLQQHQGHPPKLLSYRNNDRPSGISERFSASRSGNTASLTITGLQPEDEADYYCSTWDSSLSAVVFGGGTKLTVL | binds | no binding (tested: 10 µg/mL) | binds | no binding | binds | binds | binds |
